The source of these data is patent US20100290984A1 (DUKE UNIVERSITY, published 2010).

No end group written: not given here.

One may read the koff as the rate constant with which the complex falls apart. A higher koff goes with a short-lived complex.

Test [1] has as its target T1, MRP3-derived peptide II (PepII) (human, also: conjugated to BSA, biotinylated, site not given here).
T1 construct: Same peptide used as BSA conjugate (ELISA) and as biotinylated peptide (SPR on SA chip, bead assay); also called PepII antigen
T1 peptide: VHTENPDLTPCF
Kind of test: SPR, BIAcore 3000, biotinylated peptide on SA chip, scFv in flow. The protocol: (§1) Kinetic measurements of purified recombinant scFv were made by surface plasmon resonance using a BIAcore 3000 Biosensor (BIAcore, Piscataway, N.J.). Chips were functionalized with biotinylated peptides derived from MRP3 protein by using HEPES balanced salt solution (HBSS buffer), 10 mM HEPES pH 7.4, 150 mM NaCl, 3.4 mM EDTA, and 0.05% BIAcore surfactant P20. The scFv antibodies were diluted in HBSS buffer and passed over the SA chip at concentrations of 25, 200, and 1000 nM. The flow rate was kept at 30 μl/min, and the injection time was 3 min. Binding constants were calculated from the nonlinear fitting curve by using the BlAevaluation software (BIAcore).
In general terms: SPR reads the build-up and loss of mass on a sensor chip optically.

In test [2] the target is T1, MRP3-derived peptide II (PepII). Kind of test: SPR, BIAcore 3000, KA=kassoc/kdiss. The protocol: as §1
(§2) The association and dissociation rates from the sensograms were in the same range for PepI-58 scFv, PepI-25 scFv, and PepII-89 scFv. […] The final binding affinity was determined by the software developed by BIAcore based on the kinetics calculated among various concentrations of antibody. PepI-25 scFv had kassoc=1.3×10⁵ (mol/L-s)⁻¹, kdiss=2.8×10⁻³ s⁻¹, and KA=kassoc/kdiss, was 4.6×10⁷ (mol/L)⁻¹.

In test [3] the target is T2, MRP3-derived peptide I (PepI) (human, conjugated to BSA in the ELISA; biotinylated in BIAcore and on streptavidin beads (site of attachment not stated)).
T2 construct: Same peptide used as BSA conjugate (ELISA) and as biotinylated peptide (SPR on SA chip, bead assay); also called PepI antigen
T2 peptide: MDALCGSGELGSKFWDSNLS
Kind of test: ELISA, plate coated with MRP3-derived peptides conjugated with BSA, purified scFv, HRP anti-His detection. As to the method: (§3) A 96-well plate was coated with 10 μg/ml of specific MRP3-derived peptides conjugated with BSA as antigen and BSA and other appropriate control antigens. The rest of the protocol was as described above except that the purified scFv antibodies were added in serial dilution to the wells, and the secondary Ab used was HRP-conjugated anti-His antibody at 1:5000 dilution (Invitrogen, Carlsbad, Calif.). To check for cross-reactivity of the recombinant scFvs, the ELISA plate was coated with different peptide antigens (i.e., PepI, PepII, PepIII, PepIV) derived from MRP3, conjugated to BSA with other controls. ScFv antibodies were then added at a 10 μg/ml concentration to each well.
(In general: ELISA stands for enzyme-linked immunosorbent assay.)

The target in test [4] is T3, MRP3-derived peptide III (PepIII) (human, also: conjugated to BSA, biotinylated, site not given here).
T3 construct: Same peptide used as BSA conjugate (ELISA) and as biotinylated peptide (SPR)
T3 peptide: DAMADSRQNNTSLRL
Described as above. As to the method:
as §3

The target of test [5] is T4, MRP3-derived peptide IV (PepIV) (human, also: conjugated to BSA, biotinylated, site not given here).
T4 construct: Same peptide used as BSA conjugate (ELISA) and as biotinylated peptide (SPR)
T4 peptide: KIRSPQSFFDTTPSGRI
The description is as above. The protocol: as §3

Test [6] concerns the target T2, MRP3-derived peptide I (PepI). Briefly: SPR, BIAcore 3000, KA=kassoc/kdiss. As to the method:
as §1, §2

The target of test [7] is T3, MRP3-derived peptide III (PepIII). Briefly: ELISA, peptide-BSA coated, purified scFv, anti-His-HRP. As to the method: as §3
The target of test [8] is T1, MRP3-derived peptide II (PepII). The test is described as above. As to the method: as §3
The target of test [9] is T4, MRP3-derived peptide IV (PepIV). The description is as above. The protocol: as §3
Test [10] deals with T2, MRP3-derived peptide I (PepI). Kind of test: SPR, BIAcore 3000, biotinylated pep-I on SA chip, scFv 25 to 1000 nM. As to the method: as §1, §2
Test [11] deals with T5, human multidrug resistance protein 3 (MRP3) (human, UniProt O15438 1-1527).
T5 construct: whole, on cells; ABC transporter; endogenous on human malignant glioma cell lines D54MG, D247MG and pediatric GBM line D2159; also called cell-surface-expressed MRP3; native MRP3
Kind of test: indirect flow cytometry on viable D2159 cells (surface), anti-His-FITC detection. In general terms: In flow cytometry, cells or beads pass a laser one at a time.

Test [12] deals with T2, MRP3-derived peptide I (PepI). Briefly: SPR, BIAcore 3000, biotinylated peptide on SA chip, scFv in flow. The protocol:
as §1

Test [13] concerns the target T1, MRP3-derived peptide II (PepII). Kind of test: ELISA, plate coated with MRP3-derived peptides conjugated with BSA, purified scFv, HRP anti-His detection. As to the method: as §3
Test [14] has as its target T3, MRP3-derived peptide III (PepIII). Kind of test: SPR, BIAcore, biotinylated peptide on chip.
In test [15] the target is T5, human multidrug resistance protein 3 …. Kind of test: indirect flow cytometry on MRP3-expressing glioma cells. The protocol: To determine that the purified anti-MRP3 scFvs bind native MRP3 expressed on the surface of tumor cells, indirect fluorescence-activated cell sorting (FACS) was performed using MRP3-expressing D54MG and D247MG cells under both permeabilized and nonpermeabilized conditions. Indirect FACS analysis of MRP3 expression on the surface of viable malignant pediatric GBM cell line D2159 growing as neuroshperes was also performed.
For cytometric analysis of PepI-58, PepI-25, PepII-89, PepIII-23, and PepIV-17 scFv antibodies, D54MG and D247MG cells (1×10⁶/test) were harvested with 0.02% EDTA/PBS and fixed by resuspending them in 2-4 ml of 10% formaldehyde. After washing, the cells were blocked with 10% normal goat serum (NGS) with and without saponin for 20 min. Saponin was added to facilitate the permeabilization for examining all […] receptors. Cells were washed twice and incubated with anti-his (C-terminus)-FITC conjugated antibody (1:5000, Invitrogen, Carlsbad, Calif.) for an hour at room temperature. Finally, cells were suspended in 0.5% PFA/BSA and freshly analyzed by using a Becton Dickinson FACSort with CellQuest software (Becton Dickinson, San Jose, Calif.).

For test [16], the target named is T2, MRP3-derived peptide I (PepI). Kind of test: ELISA, peptide-BSA coated, purified scFv, anti-His-HRP. The protocol: as §3

B1: PepII-89 scFv (scFv)
scFv: QVQLVQSGGGVVQPGRSLRLSCAASGFTFSSYGMHWVRQDPGKGLMWVSSISTDGSATKYADSVKGRFTISRDNAKNTVSLQMNSLRAEDTAVYYCVGGFLGWWGQGTLVTVSSGGGGSGGGGSGGGGSEIVLTQSPATLSLSPGERATLSCRASQSVGGSYLAWYQQKPGQAPRLLIYGASRRATGIPARFSGSGSGTDFTLTISSLQPEDFASYFCQQTNTFPLTFGGGTKVEIKRTVAAPTAAA
notes: also called anti-MRP3 PepII-89scFv; not shown: Myc and hexahistidine tags from the pET 22(+) vector, at the C terminus
As for B1, in test [1], the koff stood at 0.005 s⁻¹. In test [2], the Ka worked out at 1e+07 M⁻¹. Moreover, the binding result in [3], in [4] and in [5] was “no binding (tested: 10 ug/ml)” in each case.

B2: PepI-25 scFv (scFv)
scFv: EVQLVESGGGLVQPGGSLRLSCAASGFTFSNYAMTWVRQAPGKGLEWVSAISGSGGSTYYADSVKGRFTISRDNSKNTLYLQMNSLRAEDTAVYYCATGDLDYWGQGTTVTVSSGGGGSGGGGSGGGGSQTVVTQEPSLTVSPGGTVTLTCASSTGAVTSGYYPNWFQQKPGQAPRALIYSTSNKHSWTPARFSGSLLGGKAALTLSGVQPEDEAEYYCLLYYGGAQPYVVFGGGTKVTVLGQPKAAPS
notes: not shown: Myc and hexahistidine tags from the pET 22(+) vector
For B2, the Ka in [6] was 4.6e+07 M⁻¹. In addition, the binding result in [7] is recorded as “no binding (tested: 10 µg/ml)”; in test [8], “no binding (tested: 10 µg/ml)”; in test [9], “no binding (tested: 10 µg/ml)”; in [11] it was “binds”. In addition, in test [10], the dissociation rate constant (koff) came to 0.0028 s⁻¹.

B3: PepI-58 scFv (scFv)
scFv: EVQLVQSGGGLVQPGGSLRLSCSASGFTFSNYAMHWVRRAPGKGLEYVSAISSNGGSTYYADSVKGRFTISRDNPKNTLYLQMNSLRAEDTAVYYCVRGRPYPLDVWGKGTLVTVSSGGGGSGGGGSGGGGSQSVLTQPPSASGTPGQRVTISCSGSSSNIESHAVNWYQHLPGSAPKLLIYFNNHRPSGVPERFSASKSGTSASLAISGLQSEDEADYYCAAWDDSLNGPVFGGGTKLTVLGQPKAAPS
notes: also called anti-MRP3 PepI-58scFv; not shown: Myc and hexahistidine tags from the pET 22(+) vector, at the C terminus
B3 registered a koff in test [12] of 0.0034 s⁻¹. This molecule displayed a Ka in test [6] of 2.1e+07 M⁻¹. The binding result in test [4] is reported as “no binding (tested: 10 ug/ml)”; in test [13] it was “no binding (tested: 10 ug/ml)”; in test [5], “no binding (tested: 10 ug/ml)”; in [11] it was “binds”.

B4: PepIII-23 scFv (scFv)
scFv: EVQLVQSGGGLVKPGGSLRLSCAASGFSFNNYAGSWVRQAPGKGLEWISALSSGGDTTYYADSVAGRFAISRDNSKNTLYLQMHSLRAEDTAIYYCAQDPVVGAPGYFGLWGRGTLVTVSSGGGGSGGGGSGGGGSQSVLTQPPSASGSSGQSVTISCTGTSSDIGGYNYVSWYQQHPGKAPKLMIYEVSKRPSGVSDRFSGSKSGSTASLHISGLQAEDEADYYCSSYSSNNAPYVFGSGTKVAVLGQPKAAPS
notes: as for B2
B4: the binding result was “binds” in test [14]; “no binding” in test [15]; “no binding (tested: 10 µg/ml)” in test [16]; “no binding (tested: 10 µg/ml)” in test [8]; “no binding (tested: 10 µg/ml)” in test [9].
